Test results published in patent US20260167731A1 (DOMAIN THERAPEUTICS, published 2026).
Values joined by “and” are separate entries in the source; they are usually repeats but may differ in a detail not shown here. Equal values may be shown once.

What was measured:
hCCR8 SNAP-tag [1] = target: T1, hCCR8 SNAP-tag (human, UniProt P51685 1-355, SNAP-tag labelled with Lumi4-Terbium); test: cell-based or functional assay
human CCR8 [2] = target: T2, human CCR8 (human, UniProt P51685 1-355); test: cell-based or functional assay
human CCR8 [3] = target: T2, human CCR8; test: flow cytometry, HUT78 cells (endogenous CCR8)
Description: The same staining protocol was applied on human CCR8 transfected CHO cell line versus wild type CHO cell line, cutaneous T cell lymphoma HUT78 cell line and human activated T cell model.
Briefly, 1·10⁵ cells per well in a 96 well plate were incubated with a dilution of unconjugated anti-CCR8 mAb at 10 μg/mL then diluted at 1/3.33, 4 dilution points (during 30 min at 4° C.). In human activated T cells model, prior to mAb incubation, cells were first incubated with 200 nM of hCCL1 (R&D Systems, Minneapolis, MN, USA) or buffer PBS (Invitrogen by Thermofisher Scientific, Illkirch-Graffenstaden, France) supplemented by 2% Fetal Bovine Serum (Invitrogen by Thermofisher Scientific, Illkirch-Graffenstaden, France) and 2 mM EDTA (Invitrogen by Thermofisher Scientific, Illkirch-Graffenstaden, France) during 1 hour at 4° C. To determine EC50 value, 8 concentrations of anti-CCR8 mAb were tested. Unbound antibodies were washed away with PBS (Invitrogen by Thermofisher Scientific, Illkirch-Graffenstaden, France) supplemented by 2% Fetal Bovine Serum (Invitrogen by Thermofisher Scientific, Illkirch-Graffenstaden, France) and 2 mM EDTA (Invitrogen by Thermofisher Scientific, Illkirch-Graffenstaden, France). Subsequently, cells are centrifuged (5 min at 400 g) and bound antibody is detected with F(ab′)₂-Goat anti-Mouse IgG (H+L) Cross-Adsorbed Secondary Antibody, Alexa Fluor 488 (dilution 1/500) (Invitrogen by Thermofisher Scientific, Illkirch-Graffenstaden, France) or with F(ab′)₂-Goat anti-Human IgG Fc Secondary Antibody, PE (Invitrogen by Thermofisher Scientific, Illkirch-Graffenstaden, France) (dilution 1/1000) at 4° C. for 30 min. Detection reagent is washed away and cells are centrifuged (5 min at 400 g) and resuspended in 30 μL PBS. Bound detection antibody is quantified on a MacsQuant16 (Miltenyi, Gladbach, Germany) (B1 or B2 channel, 5000 events per acquisition). During the experiment, the respective isotype mAb controls (mouse IgG1, mouse IgG2a, mouse IgG2b, mouse IgG3 or human IgG1) (Biolegend, Amsterdam, The Netherlands) are included to exclude any unspecific binding events.
EC50 values were determined via nonlinear fit “log(agonist)vs.response−Variable slope (four parameters)” function of Graphpad prism. EC50 values were not constantly determined in the same experiments.

human CCR8 [4] = target: T2, human CCR8; test: cell-based or functional assay; remark: listed apart in the source
[5] = target: pm8, modified CCR8 related peptide (human, sulfated tyrosines at Y15, Y16 and Y17); test: ELISA on coated CCR8 peptide (500 ng/mL), OD [cont.]
Sequence of pm8, modified CCR8 related peptide (human, sulfated tyrosines at Y15, Y16 and Y17) (peptide, as listed by the source): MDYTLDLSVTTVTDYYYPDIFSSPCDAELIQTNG
Description: (§1) The specific binding properties of antibodies were evaluated by ELISA with coated CCR8 related peptides (500 ng/mL) in carbonate/bicarbonate buffer. Different peptides were used as described in Table 1 (see Example 1). Each anti-CCR8 mAb was tested at 1 μg/mL then diluted at 1/10. After an incubation at room temperature during 90 min, unbound mAbs were removed by washings. […] After washings, 3,3′,5,5′-tetramethylbenzidine (TMB) (Interchim, Montlugon, France) was added for 15 min. Then the optical density (OD) was determined by using a multiplate reader (Tecan, Lyon, France) and correlated with mAb reactivity on the panel of coated peptides.

[6] = target: pm2, modified CCR8 related peptide (human, sulfated tyrosine at Y16); test: as above
Sequence of pm2, modified CCR8 related peptide (human, sulfated tyrosine at Y16) (peptide, as listed by the source): as above
Description: as §1

[7] = target: pm1, modified CCR8 related peptide (human, sulfated tyrosine at Y15); test: as above
Sequence of pm1, modified CCR8 related peptide (human, sulfated tyrosine at Y15) (peptide, as listed by the source): as above
Description: as §1

[8] = target: pm4, modified CCR8 related peptide (human, sulfated tyrosines at Y15 and Y16); test: as above
Sequence of pm4, modified CCR8 related peptide (human, sulfated tyrosines at Y15 and Y16) (peptide, as listed by the source): as above
Description: as §1

[9] = target: T3, pwt1, unmodified CCR8 related peptide (human, none (non-sulfated Y15, Y16, Y17)); test: as above
T3 construct: First 34 amino acids of human CCR8, synthetic; also called unmodified peptide
T3 sequence (peptide, as listed by the source): as above
Description: as §1

[10] = target: pm5, modified CCR8 related peptide (human, sulfated tyrosines at Y15 and Y17); test: as above
Sequence of pm5, modified CCR8 related peptide (human, sulfated tyrosines at Y15 and Y17) (peptide, as listed by the source): as above
Description: as §1

[11] = target: pm3, modified CCR8 related peptide (human, sulfated tyrosine at Y17); test: as above
Sequence of pm3, modified CCR8 related peptide (human, sulfated tyrosine at Y17) (peptide, as listed by the source): as above
Description: as §1

[12] = target: pm6, modified CCR8 related peptide (human, sulfated tyrosines at Y16 and Y17); test: as above
Sequence of pm6, modified CCR8 related peptide (human, sulfated tyrosines at Y16 and Y17) (peptide, as listed by the source): as above
Description: as §1

hCCR8 SNAP-tag [13] = target: T1, hCCR8 SNAP-tag; test: HTRF Tag-lite, inhibition of hCCL1-AF647 binding to SNAP-tag hCCR8 on HEK-293
Description: The inhibition of CCL1 binding to hCCR8 was evaluated with the Tag-Lite® technology from Cisbio (Revvity). Human CCR8 is engineered with a SNAP-tag at the N-terminus of the GPCR. hCCR8 SNAP-tag is transiently transfected on HEK-293 cell line using FuGene® (Promega, Madison, WI, USA). 48 hours after transfection, cells are labeled with the substrate Lumi4-Terbium® (Cisbio, Codolet, France) which covalently reacts with the SNAP-tag, for 1 h at 37° C. […] The Kd is previously obtained in a saturation binding assay on the same cells. […] The plate is next incubated at 21° C. for 2 h. Detection of HTRF signal is performed on the multiplate reader EnVision (PerkinElmer, Waltham, MA, USA). The HTRF (665/620) ratio is calculated by EnVision software, the data exported are considered as the total binding. The specific binding is calculated then by subtracting the non-specific signal from the total binding. The Ki and IC₅₀are calculated using the “One site—Fit Ki” and “One site—FitlogIC50” from GraphPad Prism 9 (Graphpad Software, San Diego, CA, USA), respectively.

human CCR8 [14] = target: T2, human CCR8; test: cell-based or functional assay; remark: listed apart in the source

Row | Binder | % of internalization at 1 µg/ml (CCL1 at 300 nM = 100%), HTRF (hCCR8 SNAP-tag [1]) [%] | % of internalization at 10 µg/ml (CCL1 at 300 nM = 100%), HTRF (hCCR8 SNAP-tag [1]) [%] | hCCL1 (100 nM) residual response in %, Protocol #2, mAb 0.08 µg/mL (0.53 nM) (human CCR8 [2]) [%] | hCCL1 (100 nM) residual response in %, Protocol #2, mAb 0.4 µg/mL (2.67 nM) (human CCR8 [2]) [%] | hCCL1 (100 nM) residual response in %, Protocol #2, mAb 10 µg/mL (66.7 nM) (human CCR8 [2]) [%] | hCCL1 (100 nM) residual response in %, Protocol #3, mAb 0.05 µg/mL (0.33 nM) (human CCR8 [2]) [%] | hCCL1 (100 nM) residual response in %, Protocol #3, mAb 0.5 µg/mL (3.33 nM) (human CCR8 [2]) [%] | hCCL1 (100 nM) residual response in %, Protocol #3, mAb 5 µg/mL (33.3 nM) (human CCR8 [2]) [%] | % of labelled cells (human CCR8 [3]) [%] | binding result [5] | binding result [6] | binding result [7] | binding result [8] | binding result [9] | binding result [10] | binding result [11] | binding result [12] | IC50 (hCCR8 SNAP-tag [13]) [µg/mL] | Ki (hCCR8 SNAP-tag [13]) [µg/mL] | IC50, CCL1 induced hCCR8 Gi2 signaling (BRET, HEK-293) (human CCR8 [14]) | further results
1 | humanized anti-CCR8 mAb 2-14 (antibody, human IgG1, kappa, V domains shown, Humanized, human IgG1 / kappa) VH: QVQLVQSGPEVVKPGASVKVSCKTSGYTFTEYTIHWVRQAPGQSLEWVGGINPNNGNTRYDQKFQGRVTITRDKSASTAYMELRSLTSEDTAVYYCARVARSSGSGPYAMDYWGQGTTVTVSS VL: DVVMTQSPLSLPVTLGDQASISCRCSQSLLHTNGDTYLHWYLQRPGQSPRLLIYKVSNRFSGVPDRFSGSGSGTDFTLKISRVEAEDVGVYFCSQSTHVPYTFGGGTKVEIKR | 44 | 29 | 67 | 55 | 32 | 86 | 60 | 42 | 96 | binds | binds | binds | binds | binds | binds | binds | binds | 0.04 | 0.02 | 0.022 µg/mL and 0.147 nM | ADCC % Max lysis, HUT78 targets, NK cells Donor 3 (human CCR8 [4]): 15%; ADCC % Max lysis, HUT78 targets, NK cells Donor 4 (human CCR8 [4]): 16%; ADCC EC50, HUT78 targets, NK cells Donor 3 (human CCR8 [4]): 505 pM; ADCC EC50, HUT78 targets, NK cells Donor 4 (human CCR8 [4]): 573 pM
2 | humanized anti-CCR8 mAb 2-15 (antibody, human IgG1, kappa, V domains shown, Humanized, human IgG1 / kappa) VH: QVQLQQSGPEVVKPGASVKVSCKTSGYTFTEYTIHWVRQSHGQSLEWVGGINPNNGNTRYDQKFKGRVTITIDKSSSTAYMELRSLTSEDTAVYYCARVARSSGSGPYAMDYWGQGTTVTVSS VL: DVVMTQSPLSLPVTLGDQASISCRCSQSLLHTNGDTYLHWYLQRPGQSPRLLIYKVSNRFSGVPDRFSGSGSGTDFTLKISRVEAEDVGVYFCSQSTHVPYTFGGGTKVEIKR | 44 | 36 | 77 | 66 | 41 | 73 | 52 | 37 | 88 | binds | binds | binds | binds | binds | binds | binds | binds | 0.04 | 0.02 | 0.034 µg/mL and 0.227 nM | EC50 (human CCR8 [3]): 200 pM
